From article PMC3954793, “SHP-2 Binds to Caveolin-1 and Regulates Src Activity via Competitive Inhibition of CSK in Response to H2O2 in Astrocytes” (PLoS ONE, 2014)

Key:
SHP-2 = SHP-2 (UniProt Q06124); test: PepSPOT peptide array overlay; details: reference: nonphosphorylated 13-mer peptides; sites Y14
CSK = CSK (UniProt P41240); test: PepSPOT peptide array overlay; details: reference: nonphosphorylated 13-mer peptides; sites Y14

binding against the reference (SHP-2): stronger
binding against the reference (CSK): stronger
Substance: caveolin-1 13-mers within 1-28 (from UniProt Q03135) pY14 13-mer peptides
